Measured values from patent publication US20140087995A1 (published 2014).
Numbered stars: 1 amine (or outer) side, 2 acyl side, 3 side chain; on linkers, the order of the positions; unused ones are H or OH. Bridge positions count the residues as written; N and C are the ends. Side chains are listed from the residue outwards. Ends that are not written are not given here. * marks the point of attachment. C20 diacid = O=C(O)CCCCCCCCCCCCCCCCCCC(=O)*; γGlu = O=C(O)[C@H](CCC(=O)[*:2])N[*:1]

T1: rat amylin receptor (rat calcitonin receptor + rat RAMP 3) (rat, UniProt P32214 25-516; Q9JJ73 23-147)
T1 construct: whole, on cells; Membranes of transiently transfected BHK tk'ts 13 cells (Assay VI); also called rAmylin-R; rat amylin 3(a) receptor
T1 sequence (looked up) 1: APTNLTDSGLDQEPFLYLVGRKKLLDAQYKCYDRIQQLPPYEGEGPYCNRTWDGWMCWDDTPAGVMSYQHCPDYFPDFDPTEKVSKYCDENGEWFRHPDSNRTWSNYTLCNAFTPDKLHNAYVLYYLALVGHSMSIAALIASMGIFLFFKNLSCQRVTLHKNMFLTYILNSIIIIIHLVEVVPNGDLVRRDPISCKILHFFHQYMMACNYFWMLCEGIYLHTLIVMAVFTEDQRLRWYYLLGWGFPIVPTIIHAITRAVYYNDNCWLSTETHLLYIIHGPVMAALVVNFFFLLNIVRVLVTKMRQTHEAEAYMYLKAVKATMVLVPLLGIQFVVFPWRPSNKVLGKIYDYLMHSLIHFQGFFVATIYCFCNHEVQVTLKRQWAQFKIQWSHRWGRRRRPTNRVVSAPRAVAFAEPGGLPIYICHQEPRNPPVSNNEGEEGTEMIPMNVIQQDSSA
T1 sequence (looked up) 2: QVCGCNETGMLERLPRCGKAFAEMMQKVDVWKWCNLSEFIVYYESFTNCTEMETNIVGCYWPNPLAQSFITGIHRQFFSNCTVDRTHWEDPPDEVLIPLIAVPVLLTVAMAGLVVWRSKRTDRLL

T2: rat calcitonin receptor (rat, UniProt P32214 25-516)
T2 construct: whole, on cells; Membranes of transiently transfected BHK tk'ts 13 cells (Assay VIII); also called rCTR
T2 sequence (looked up): T1 sequence (looked up) 1

T3: human calcitonin receptor (human, UniProt P30988 25-474)
T3 construct: whole, on cells; Membranes of a stably transfected BHK cell line (Assay VII); also called hCTR; hCT
T3 sequence (looked up): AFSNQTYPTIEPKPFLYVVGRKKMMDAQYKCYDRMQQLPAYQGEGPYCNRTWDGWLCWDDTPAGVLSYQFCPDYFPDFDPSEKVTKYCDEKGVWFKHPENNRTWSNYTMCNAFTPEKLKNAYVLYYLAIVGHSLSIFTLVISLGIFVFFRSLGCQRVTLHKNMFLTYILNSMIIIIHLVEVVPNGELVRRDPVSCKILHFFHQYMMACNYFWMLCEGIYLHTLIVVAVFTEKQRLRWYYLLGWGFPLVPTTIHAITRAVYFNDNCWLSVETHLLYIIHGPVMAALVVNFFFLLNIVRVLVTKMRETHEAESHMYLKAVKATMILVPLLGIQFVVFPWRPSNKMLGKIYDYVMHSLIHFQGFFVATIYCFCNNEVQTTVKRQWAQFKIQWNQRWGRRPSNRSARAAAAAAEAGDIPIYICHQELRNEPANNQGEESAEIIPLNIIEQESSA

B1: N^ε1-[(4S)-4-carboxy-4-[[(4S)-4-carboxy-4-(19-carboxynonadecanoylamino)butanoyl]amino]butanoyl]-[Arg17,Pro21,Pro27,His34]-h-amylin (peptide)
peptide: K([γGlu-γGlu-C20 diacid])CNTATCATQRLANFLRHSSPNFGAIPSSTNVGHNTY-NH2
modifications: disulfide 2-7; N-terminus assumed
SMILES: CC[C@H](C)[C@H](NC(=O)[C@H](C)NC(=O)CNC(=O)[C@H](Cc1ccccc1)NC(=O)[C@H](CC(N)=O)NC(=O)[C@@H]1CCCN1C(=O)[C@H](CO)NC(=O)[C@H](CO)NC(=O)[C@H](Cc1c[nH]cn1)NC(=O)[C@H](CCCNC(=N)N)NC(=O)[C@H](CC(C)C)NC(=O)[C@H](Cc1ccccc1)NC(=O)[C@H](CC(N)=O)NC(=O)[C@H](C)NC(=O)[C@H](CC(C)C)NC(=O)[C@H](CCCNC(=N)N)NC(=O)[C@H](CCC(N)=O)NC(=O)[C@@H](NC(=O)[C@H](C)NC(=O)[C@@H]1CSSC[C@H](NC(=O)[C@@H](N)CCCCNC(=O)CC[C@H](NC(=O)CC[C@H](NC(=O)CCCCCCCCCCCCCCCCCCC(=O)O)C(=O)O)C(=O)O)C(=O)N[C@@H](CC(N)=O)C(=O)N[C@@H]([C@@H](C)O)C(=O)N[C@@H](C)C(=O)N[C@@H]([C@@H](C)O)C(=O)N1)[C@@H](C)O)C(=O)N1CCC[C@H]1C(=O)N[C@@H](CO)C(=O)N[C@@H](CO)C(=O)N[C@H](C(=O)N[C@@H](CC(N)=O)C(=O)N[C@H](C(=O)NCC(=O)N[C@@H](Cc1c[nH]cn1)C(=O)N[C@@H](CC(N)=O)C(=O)N[C@H](C(=O)N[C@@H](Cc1ccc(O)cc1)C(N)=O)[C@@H](C)O)C(C)C)[C@@H](C)O
notes: also called compound 86
B2: N^ε1-[(4S)-4-carboxy-4-[[(4S)-4-carboxy-4-(19-carboxynonadecanoylamino)butanoyl]amino]butanoyl]-[Glu14,Arg17,Pro21,Pro27,Arg34]-h-amylin (peptide)
peptide: K([γGlu-γGlu-C20 diacid])CNTATCATQRLAEFLRHSSPNFGAIPSSTNVGRNTY-NH2
modifications: disulfide 2-7; N-terminus assumed
SMILES: CC[C@H](C)[C@H](NC(=O)[C@H](C)NC(=O)CNC(=O)[C@H](Cc1ccccc1)NC(=O)[C@H](CC(N)=O)NC(=O)[C@@H]1CCCN1C(=O)[C@H](CO)NC(=O)[C@H](CO)NC(=O)[C@H](Cc1c[nH]cn1)NC(=O)[C@H](CCCNC(=N)N)NC(=O)[C@H](CC(C)C)NC(=O)[C@H](Cc1ccccc1)NC(=O)[C@H](CCC(=O)O)NC(=O)[C@H](C)NC(=O)[C@H](CC(C)C)NC(=O)[C@H](CCCNC(=N)N)NC(=O)[C@H](CCC(N)=O)NC(=O)[C@@H](NC(=O)[C@H](C)NC(=O)[C@@H]1CSSC[C@H](NC(=O)[C@@H](N)CCCCNC(=O)CC[C@H](NC(=O)CC[C@H](NC(=O)CCCCCCCCCCCCCCCCCCC(=O)O)C(=O)O)C(=O)O)C(=O)N[C@@H](CC(N)=O)C(=O)N[C@@H]([C@@H](C)O)C(=O)N[C@@H](C)C(=O)N[C@@H]([C@@H](C)O)C(=O)N1)[C@@H](C)O)C(=O)N1CCC[C@H]1C(=O)N[C@@H](CO)C(=O)N[C@@H](CO)C(=O)N[C@H](C(=O)N[C@@H](CC(N)=O)C(=O)N[C@H](C(=O)NCC(=O)N[C@@H](CCCNC(=N)N)C(=O)N[C@@H](CC(N)=O)C(=O)N[C@H](C(=O)N[C@@H](Cc1ccc(O)cc1)C(N)=O)[C@@H](C)O)C(C)C)[C@@H](C)O
notes: also called compound 88
B3: N^ε1-[(4S)-4-carboxy-4-[[(4S)-4-carboxy-4-(19-carboxynonadecanoylamino)butanoyl]amino]butanoyl]-[Arg17,Pro21,Pro27,Pro31,Pro34,Arg35]-h-amylin (peptide)
peptide: K([γGlu-γGlu-C20 diacid])CNTATCATQRLANFLRHSSPNFGAIPSSTPVGPRTY-NH2
modifications: disulfide 2-7; N-terminus assumed
SMILES: CC[C@H](C)[C@H](NC(=O)[C@H](C)NC(=O)CNC(=O)[C@H](Cc1ccccc1)NC(=O)[C@H](CC(N)=O)NC(=O)[C@@H]1CCCN1C(=O)[C@H](CO)NC(=O)[C@H](CO)NC(=O)[C@H](Cc1c[nH]cn1)NC(=O)[C@H](CCCNC(=N)N)NC(=O)[C@H](CC(C)C)NC(=O)[C@H](Cc1ccccc1)NC(=O)[C@H](CC(N)=O)NC(=O)[C@H](C)NC(=O)[C@H](CC(C)C)NC(=O)[C@H](CCCNC(=N)N)NC(=O)[C@H](CCC(N)=O)NC(=O)[C@@H](NC(=O)[C@H](C)NC(=O)[C@@H]1CSSC[C@H](NC(=O)[C@@H](N)CCCCNC(=O)CC[C@H](NC(=O)CC[C@H](NC(=O)CCCCCCCCCCCCCCCCCCC(=O)O)C(=O)O)C(=O)O)C(=O)N[C@@H](CC(N)=O)C(=O)N[C@@H]([C@@H](C)O)C(=O)N[C@@H](C)C(=O)N[C@@H]([C@@H](C)O)C(=O)N1)[C@@H](C)O)C(=O)N1CCC[C@H]1C(=O)N[C@@H](CO)C(=O)N[C@@H](CO)C(=O)N[C@H](C(=O)N1CCC[C@H]1C(=O)N[C@H](C(=O)NCC(=O)N1CCC[C@H]1C(=O)N[C@@H](CCCNC(=N)N)C(=O)N[C@H](C(=O)N[C@@H](Cc1ccc(O)cc1)C(N)=O)[C@@H](C)O)C(C)C)[C@@H](C)O
B4: N^ε1-[(4S)-4-carboxy-4-[[(4S)-4-carboxy-4-(19-carboxynonadecanoylamino)butanoyl]amino]butanoyl]-[Glu14,Arg17,Pro21,Pro27,Arg35]-h-amylin (peptide)
peptide: K([γGlu-γGlu-C20 diacid])CNTATCATQRLAEFLRHSSPNFGAIPSSTNVGSRTY-NH2
modifications: disulfide 2-7; N-terminus assumed
SMILES: CC[C@H](C)[C@H](NC(=O)[C@H](C)NC(=O)CNC(=O)[C@H](Cc1ccccc1)NC(=O)[C@H](CC(N)=O)NC(=O)[C@@H]1CCCN1C(=O)[C@H](CO)NC(=O)[C@H](CO)NC(=O)[C@H](Cc1c[nH]cn1)NC(=O)[C@H](CCCNC(=N)N)NC(=O)[C@H](CC(C)C)NC(=O)[C@H](Cc1ccccc1)NC(=O)[C@H](CCC(=O)O)NC(=O)[C@H](C)NC(=O)[C@H](CC(C)C)NC(=O)[C@H](CCCNC(=N)N)NC(=O)[C@H](CCC(N)=O)NC(=O)[C@@H](NC(=O)[C@H](C)NC(=O)[C@@H]1CSSC[C@H](NC(=O)[C@@H](N)CCCCNC(=O)CC[C@H](NC(=O)CC[C@H](NC(=O)CCCCCCCCCCCCCCCCCCC(=O)O)C(=O)O)C(=O)O)C(=O)N[C@@H](CC(N)=O)C(=O)N[C@@H]([C@@H](C)O)C(=O)N[C@@H](C)C(=O)N[C@@H]([C@@H](C)O)C(=O)N1)[C@@H](C)O)C(=O)N1CCC[C@H]1C(=O)N[C@@H](CO)C(=O)N[C@@H](CO)C(=O)N[C@H](C(=O)N[C@@H](CC(N)=O)C(=O)N[C@H](C(=O)NCC(=O)N[C@@H](CO)C(=O)N[C@@H](CCCNC(=N)N)C(=O)N[C@H](C(=O)N[C@@H](Cc1ccc(O)cc1)C(N)=O)[C@@H](C)O)C(C)C)[C@@H](C)O
notes: also called compound 89
B5: N^ε1-[(4S)-4-carboxy-4-[[(4S)-4-carboxy-4-(19-carboxynonadecanoylamino)butanoyl]amino]butanoyl]-[Glu14,Arg17,Pro21,Pro27,Arg34,Glu35]-h-amylin (peptide)
peptide: K([γGlu-γGlu-C20 diacid])CNTATCATQRLAEFLRHSSPNFGAIPSSTNVGRETY-NH2
modifications: disulfide 2-7; N-terminus assumed
SMILES: CC[C@H](C)[C@H](NC(=O)[C@H](C)NC(=O)CNC(=O)[C@H](Cc1ccccc1)NC(=O)[C@H](CC(N)=O)NC(=O)[C@@H]1CCCN1C(=O)[C@H](CO)NC(=O)[C@H](CO)NC(=O)[C@H](Cc1c[nH]cn1)NC(=O)[C@H](CCCNC(=N)N)NC(=O)[C@H](CC(C)C)NC(=O)[C@H](Cc1ccccc1)NC(=O)[C@H](CCC(=O)O)NC(=O)[C@H](C)NC(=O)[C@H](CC(C)C)NC(=O)[C@H](CCCNC(=N)N)NC(=O)[C@H](CCC(N)=O)NC(=O)[C@@H](NC(=O)[C@H](C)NC(=O)[C@@H]1CSSC[C@H](NC(=O)[C@@H](N)CCCCNC(=O)CC[C@H](NC(=O)CC[C@H](NC(=O)CCCCCCCCCCCCCCCCCCC(=O)O)C(=O)O)C(=O)O)C(=O)N[C@@H](CC(N)=O)C(=O)N[C@@H]([C@@H](C)O)C(=O)N[C@@H](C)C(=O)N[C@@H]([C@@H](C)O)C(=O)N1)[C@@H](C)O)C(=O)N1CCC[C@H]1C(=O)N[C@@H](CO)C(=O)N[C@@H](CO)C(=O)N[C@H](C(=O)N[C@@H](CC(N)=O)C(=O)N[C@H](C(=O)NCC(=O)N[C@@H](CCCNC(=N)N)C(=O)N[C@@H](CCC(=O)O)C(=O)N[C@H](C(=O)N[C@@H](Cc1ccc(O)cc1)C(N)=O)[C@@H](C)O)C(C)C)[C@@H](C)O

target: T1, rat amylin receptor (rat calcitonin …); experiment: SPA competition with 125I-rat amylin, membranes of BHK cells with rat calcitonin receptor + rat RAMP3 (Assay VI)

| IC50 [nM] | Binder |
| --- | --- |
| 2.8 | B1 |
| 2.31 | B2 |
| 0.381 | B3 |
| 2.37 | B4 |
| 2.86 | B5 |

target: T2, rat calcitonin receptor; experiment: ratio IC50 rat calcitonin receptor / IC50 rat amylin receptor (reference)

| Ratio rCT/rAmylin binding | Binder |
| --- | --- |
| 126 | B1 |
| 84.9 | B2 |
| 137 | B3 |
| 48.8 | B4 |
| 158 | B5 |

target: T3, human calcitonin receptor; experiment: ratio IC50 human calcitonin receptor / IC50 human amylin receptor (reference)
Summary of the method: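 Competition binding by SPA uses membrane preparations (35 ng/μL final) in pH 7.4 Hepes buffer with 1 mM CaCl2 and 5 mM MgCl₂. Incubation lasts 120 min at 25° C, and IC₅₀ comes from one-site fitting.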

| Ratio hCT/hAmylin binding | Binder |
| --- | --- |
| 159 | B1 |
| 46.5 | B2 |
| 48.6 | B3 |
| 28 | B4 |
| 14.7 | B5 |

target: T2, rat calcitonin receptor; experiment: SPA competition with 125I-calcitonin, membranes of BHK cells with rat calcitonin receptor (Assay VIII)

| IC50 [nM] | Binder |
| --- | --- |
| 352 | B1 |
| 196 | B2 |
| 52.4 | B3 |
| 115 | B4 |
| 452 | B5 |
